Target: the molecule itself
Assay: SEC; Superdex 75 10/300 GL; 20 mM NaCl, 25 mM HEPES, 0.2 mM 2-mercaptoethanol; size from a calibration curve of marker proteins

B1: His-CIP4-HR1 (domain or fragment, Mus musculus, UniProt Q8CJ53-3 339-425, looked up)
chain: PPEQQRKRLQQQLEERNRELQKEEDQREALKKMKDVYEKTPQMGDPASLEPRIAETLGNIERLKLEVQKYEAWLAEAESRVLSNRGD
notes: CIP4, Mus musculus, HR1, a.a; 339-425; numbers count on: UniProt Q8CJ53-3; also called homology region 1 of CIP4; source: E. coli BL21-CodonPlus (DE3)-RIL, purified (Ni-NTA agarose, dialysis)
- stoichiometry N: 2

Reference: paper PMC10393992 (Nature Communications, 2023)
